B1: Indoleamine 2,3-dioxygenase 1 (Mus musculus), P28776 (parent)
chain: MALSKISPTEGSRRILEDHHIDEDVGFALPHPLVELPDAYSPWVLVARNLPVLIENGQLREEVEKLPTLSTDGLRGHRLQRLAHLALGYITMAYVWNRGDDDVRKVLPRNIAVPYCELSEKLGLPPILSYADCVLANWKKKDPNGPMTYENMDILFSFPGGDCDKGFFLVSLLVEIAASPAIKAIPTVSSAVERQDLKALEKALHDIATSLEKAKEIFKRMRDFVDPDTFFHVLRIYLSGWKCSSKLPEGLLYEGVWDTPKMFSGGSAGQSSIFQSLDVLLGIKHEAGKESPAEFLQEMREYMPPAHRNFLFFLESAPPVREFVISRHNEDLTKAYNECVNGLVSVRKFHLAIVDTYIMKPSKKKPTDGDKSEEPSNVESRGTGGTNPMTFLRSVKDTTEKALLSWP

Variants of: B1
Settings: with ptn6_mouse Ptpn6, P29351
ptn6_mouse Ptpn6, P29351, sequence (P29351 whole entry): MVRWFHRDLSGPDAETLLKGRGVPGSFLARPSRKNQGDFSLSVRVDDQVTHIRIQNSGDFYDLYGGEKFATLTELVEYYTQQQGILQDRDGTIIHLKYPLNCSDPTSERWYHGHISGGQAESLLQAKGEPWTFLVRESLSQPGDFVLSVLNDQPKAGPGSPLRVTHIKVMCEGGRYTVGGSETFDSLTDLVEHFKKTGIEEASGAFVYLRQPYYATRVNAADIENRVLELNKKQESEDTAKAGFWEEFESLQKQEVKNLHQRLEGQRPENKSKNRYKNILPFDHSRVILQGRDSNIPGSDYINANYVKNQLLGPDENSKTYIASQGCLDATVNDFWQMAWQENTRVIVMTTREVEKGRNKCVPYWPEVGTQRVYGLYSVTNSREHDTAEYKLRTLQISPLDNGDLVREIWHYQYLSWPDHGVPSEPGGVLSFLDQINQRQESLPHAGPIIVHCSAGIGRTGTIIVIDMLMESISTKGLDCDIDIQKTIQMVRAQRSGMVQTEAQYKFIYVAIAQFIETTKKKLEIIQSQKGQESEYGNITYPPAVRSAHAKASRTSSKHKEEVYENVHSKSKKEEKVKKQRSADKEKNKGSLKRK

Row | Variant | effect of a mutation on the interaction
1 | Y115F;Y253F | decreasing interaction
